The results in this text go back to the supplement of paper PMC7125110.

± gives the standard error. This sample holds only a part of the variants without activity.

B1: glmS ribozyme (parent)
chain: AUAAAAGCGCCAGAACUACAGAAAUGUAGUUGACGAGGAGGAGGUUUAUCGAAUUUUCGGCGGAUGCCUCCAAA

Holding throughout (settings): with glucosamine-6-phosphate
Variants of B1 are the subject of data set [1]. Put plainly: self-cleavage kobs at 160 uM GlcN6P; higher = faster cleavage; RNA array. In a few lines: (§1)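 E. coli RNA polymerase transcribed barcoded ribozyme variants in situ on sequenced MiSeq chips, which were tracked via a hybridised Cy3 probe at 37 °C. Tiles were imaged over ~14 h after glucosamine-6-phosphate (40 μM to 10 mM) in HEPES/KCl/Mg(OAc)2 buffer was flowed in. Normalised per-tile medians were fit to one- or two-exponential decays for kobs, and kcat and KM came from weighted Michaelis–Menten fits.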

Variants of B1 are the subject of data set [2]. Put plainly: self-cleavage kobs at 640 uM GlcN6P; higher = faster cleavage; RNA array. In a few lines:
as §1

Data set [3] covers variants of B1. Put plainly: self-cleavage kobs at 2500 uM GlcN6P; higher = faster cleavage; RNA array. In a few lines:
as §1

Data set [4] covers variants of B1. As to the kind of experiment: self-cleavage kobs at 10000 uM GlcN6P; higher = faster cleavage; RNA array. Summed up:
as §1

As to AUAAAAGCGCCAGAACUACAGAAAUGUAGUUGACGAGGAGGCGGUUUAUCGGAUAUGCGGCGGAUGCUUUCAAA [A42C A52G U55A U57G C68U C70U], the “self-cleavage kobs at 160 uM GlcN6P” value in data set [1] was less than 1e-05 s⁻¹. The “self-cleavage kobs at 640 uM GlcN6P” value in data set [2] is less than 1e-05 s⁻¹. Also, the “self-cleavage kobs at 2500 uM GlcN6P” value in data set [3] was less than 1e-05 s⁻¹.
Take AUAAAAGGGCCAGAACUACAGAAAUGUAGUUGACGAGGAUGAGGUUUAUCGAAUUUUCGGAGGAUGCCUCUAAA [C8G G40U C61A C71U]: the “self-cleavage kobs at 160 uM GlcN6P” value in data set [1] was less than 1e-05 s⁻¹.
For the variant AUAAAAUCGCCAGAACUACAGAAAUGUAGUUGACGAGGAGGAGGUUUAUCGAAUUUUCGGCGGAUGCCUCUAAA [G7U C71U], the “self-cleavage kobs at 160 uM GlcN6P” value in data set [1] is less than 1e-05 s⁻¹. Also, the “self-cleavage kobs at 10000 uM GlcN6P” value in data set [4] was less than 1e-05 s⁻¹.
Consider AUAAAAGCGCCAGAGCUACAGAAAUGUAGUUGAUGAGGAGGAGGUUUAUCGAAUUUUCGGCGAAUGCCUCCAAA [A15G C34U G63A], for which the “self-cleavage kobs at 160 uM GlcN6P” value in data set [1] was less than 1e-05 s⁻¹. Moreover, the “self-cleavage kobs at 2500 uM GlcN6P” value in data set [3] is less than 1e-05 s⁻¹.
Turning to AUAAAAGCGCCAGAAUUACAGAAAUGUAGUUGACGAGGAAGAGGUCUAUCGAAUUUUCGGCGGAUGCCUCCAAA [C16U G40A U46C], the “self-cleavage kobs at 160 uM GlcN6P” value in data set [1] came out at 0.000137 ± 3.1e-05 s⁻¹. The “self-cleavage kobs at 2500 uM GlcN6P” value in data set [3] worked out at 0.000815 ± 0.00018 s⁻¹.
With AUAAAGGCGCCAGAACUACAGAAAUGUAGUUGACGAGGAGGAGGUCUAUCGAAUUUGCGGCGGAUGCCUCCAAA [A6G U46C U57G], the “self-cleavage kobs at 160 uM GlcN6P” value in data set [1] is less than 1e-05 s⁻¹.
As to AUAAAAGCGCCAGAACUACAGAAAUGUAGAUGACGAGGCGGAGGUUUAUCGAAUCUUCGGCGGAUGCCUCCAAA [U30A A39C U55C], in data set [1], the “self-cleavage kobs at 160 uM GlcN6P” value came to 4.87e-05 ± 1.3e-05 s⁻¹. For the same variant, the “self-cleavage kobs at 640 uM GlcN6P” value in data set [2] was 0.00025 ± 4.5e-05 s⁻¹. In addition, the “self-cleavage kobs at 2500 uM GlcN6P” value in data set [3] is 0.000864 ± 0.00021 s⁻¹.
Consider AUAAAAGCGCAAGAUCUACAGAAAUGUAGUUGACGAGGAGGAGGUUUAUCGAAUUUUCGGCGGAUGCCUGCAAA [C11A A15U C70G], for which the “self-cleavage kobs at 160 uM GlcN6P” value in data set [1] was 4.95e-05 ± 1.9e-05 s⁻¹. Moreover, in data set [2], the “self-cleavage kobs at 640 uM GlcN6P” value stood at 0.000432 ± 0.00013 s⁻¹.
The matching figures for AUAAAAGCGCCAGAACUACAGAAAUGUAGUUGUCGAGAAGGAGGUUUGUCGAAUUUUCGGCGGAUUCCGCCAAA [A33U G38A A48G G66U U69G]: 4.81e-05 ± 1.6e-05 s⁻¹ and 0.000108 ± 2.9e-05 s⁻¹.
In the case of AUAAAAGCGCCAGAACUACAGAAAUGUAGUUGGCGAGGAGGAGGUUUAUCGAAUUUUCGGCGGAUGGCUACAAA [A33G C67G C70A], the “self-cleavage kobs at 160 uM GlcN6P” value in data set [1] was found to be 4.49e-05 ± 2.2e-05 s⁻¹.
Still for that read-out and setting: under AUAAAAGCUCCAGAACUACAGAAAUGUAGUGGACGAGGAGGAGGUUUGUCGAAUUUUCGGCGGAUGCCUCCAAA [G9U U31G A48G] stands less than 1e-05 s⁻¹.
Consider AUAAAAGCGCCAGAACUACAGAAAUGUACUUGAGGAGGAGGAGGUUUAUCGAAUCUUCGGCGGAUGCCUCCAAA [G29C C34G U55C], for which the “self-cleavage kobs at 160 uM GlcN6P” value in data set [1] was less than 1e-05 s⁻¹.
Turning to AUAAAAGCGCCAAAACUACAGAAAUGUAGUUGACGAGGAGUACGUUUAUCGAAUUUUCGGCGGAUGCCUCCAAA [G13A G41U G43C], the “self-cleavage kobs at 160 uM GlcN6P” value in data set [1] was less than 1e-05 s⁻¹. In addition, the “self-cleavage kobs at 640 uM GlcN6P” value in data set [2] was less than 1e-05 s⁻¹.
Turning to AUAAAAUCGCCAGAACUACAGAAAUGUAGUUGACGAUGAGGAGGUUUAUCGAAUUUUCGGCGGAUGCCUCCAAA [G7U G37U], the “self-cleavage kobs at 160 uM GlcN6P” value in data set [1] was less than 1e-05 s⁻¹. In addition, the “self-cleavage kobs at 10000 uM GlcN6P” value in data set [4] was less than 1e-05 s⁻¹.
Consider AUAAAAGUGCCAGAACUACAGAAAUGUAGUUAACGAGGAGGAGGUUUAUCGAAUUUUCGGCGGAUGCCUCCAAA [C8U G32A], for which, in data set [1], the “self-cleavage kobs at 160 uM GlcN6P” value is less than 1e-05 s⁻¹. In addition, the “self-cleavage kobs at 2500 uM GlcN6P” value in data set [3] was less than 1e-05 s⁻¹. In addition, in data set [4], the “self-cleavage kobs at 10000 uM GlcN6P” value is less than 1e-05 s⁻¹.
Consider AUAAACGCGCCAGAUCUACAGAAAUGUAGUUGACGAGGAGGAGGUUUAUCGAAUUUUCGGCGGAUGCCUCGAAA [A6C A15U C71G], for which, in data set [1], the “self-cleavage kobs at 160 uM GlcN6P” value is less than 1e-05 s⁻¹.
AUAAAAGCGCCAGAACUACAGAAAUGUAGUUGACGAGGAGGAGGUUUAUCGAAUUUUCGGUGGCUGGCUCCAAA [C61U A64C C67G]: in data set [1], the “self-cleavage kobs at 160 uM GlcN6P” value was less than 1e-05 s⁻¹. Besides, in data set [3], the “self-cleavage kobs at 2500 uM GlcN6P” value is less than 1e-05 s⁻¹.
As to AUAAAAGAGCCAGAAAUACAGAAAUGUAGUUGACGAGGACGAGGUUUAUCGAAUUUUCGGCGGAGGCCUCCAAA [C8A C16A G40C U65G], the “self-cleavage kobs at 160 uM GlcN6P” value in data set [1] was less than 1e-05 s⁻¹. Besides, the “self-cleavage kobs at 2500 uM GlcN6P” value in data set [3] is less than 1e-05 s⁻¹.
Take AUAAAAGCGCCAGAACUACAGAAAUGUAGUUGAUGAGGAGGAGGUUUAUCGAAUUCUCGGCGGAUCCCUCCAAA [C34U U56C G66C]: in data set [1], the “self-cleavage kobs at 160 uM GlcN6P” value is less than 1e-05 s⁻¹. The “self-cleavage kobs at 2500 uM GlcN6P” value in data set [3] was less than 1e-05 s⁻¹.
For AUAAAAGCGCCAGAAUUACAGAAAUGUAGUUGACGAGGAGGGGGUUUUUCGAAUUUUCGGCGGAUUCCUCCAAA [C16U A42G A48U G66U], the “self-cleavage kobs at 160 uM GlcN6P” value in data set [1] was less than 1e-05 s⁻¹. The “self-cleavage kobs at 640 uM GlcN6P” value in data set [2] is less than 1e-05 s⁻¹.
Consider AUAAAAGCGCCAGAACUACAGAAAUGUAGUUGACGAGGAGGAGGUUUAUCGAAUUUUUGGGGGAUAACUCCAAA [C58U C61G G66A C67A], for which the “self-cleavage kobs at 160 uM GlcN6P” value in data set [1] came out at 5.89e-05 ± 2e-05 s⁻¹. For the same variant, the “self-cleavage kobs at 640 uM GlcN6P” value in data set [2] worked out at 0.000108 ± 3.7e-05 s⁻¹.
